This experiment addresses untagged recombinant mouse TWEAK (mouse) (UniProt O54907).
Sequence of UniProt O54907 (O54907 94-249): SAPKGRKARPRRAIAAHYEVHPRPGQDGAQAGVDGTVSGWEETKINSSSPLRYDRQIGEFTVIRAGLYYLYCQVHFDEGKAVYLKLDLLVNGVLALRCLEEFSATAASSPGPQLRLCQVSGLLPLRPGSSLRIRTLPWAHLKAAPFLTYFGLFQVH

As for recombinant mouse sCD163 (receptor), the TWEAK (200 ng ml^-1)-induced canonical and non-canonical NF-kB signalling in mouse endothelial cells (MDEC), immunoblotting, with increasing doses of recombinant mouse sCD163 amounted to 50.

These data come from publication PMC4918310.
